Laboratory results as given in patent publication US20220306729A1 (published 2022).

How the values were obtained:
[1] = molecular target: T1, DENV3 EDIII, polyhistidine-AviTag (Dengue virus 3, UniProt Q6YMS4 575-672); assay: cross-reactivity ELISA on EDIII proteins
T1 construct: domain: EDIII

[2] = molecular target: WNV EDIII, polyhistidine-AviTag (West Nile virus); assay: cross-reactivity ELISA on EDIII proteins
[3] = molecular target: T2, DENV4 EDIII, polyhistidine-AviTag (Dengue virus 4, UniProt P09866 576-673); assay: cross-reactivity ELISA on EDIII proteins
T2 construct: domain: EDIII

[4] = molecular target: DENV1 E protein (strain PUO-359) on reporter viral particles or infectious virus (Dengue virus 1, strain PUO-359); assay: cell-based or functional assay
[5] = molecular target: ZIKV E protein on infectious virus, 2015 Puerto Rican PRVABC59 strain (Zika virus, strain PRVABC59); assay: cell-based or functional assay
[6] = molecular target: T3, ZIKV envelope domain III ([..]), polyhistidine-AviTag, made in HEK-293-6E cells (Zika virus (KJ776791)); assay: ELISA on ZIKV EDIII (Table A)
T3 construct: also called ZEDIII; ZIKV EDIII

[7] = molecular target: ZIKV E protein (African strain MR766) on reporter viral particles (Zika virus, strain MR766, UniProt Q32ZE1 291-790); assay: cell-based or functional assay
Sequence of ZIKV E protein (African strain MR766) on reporter viral particles (Q32ZE1 291-790 limits assumed): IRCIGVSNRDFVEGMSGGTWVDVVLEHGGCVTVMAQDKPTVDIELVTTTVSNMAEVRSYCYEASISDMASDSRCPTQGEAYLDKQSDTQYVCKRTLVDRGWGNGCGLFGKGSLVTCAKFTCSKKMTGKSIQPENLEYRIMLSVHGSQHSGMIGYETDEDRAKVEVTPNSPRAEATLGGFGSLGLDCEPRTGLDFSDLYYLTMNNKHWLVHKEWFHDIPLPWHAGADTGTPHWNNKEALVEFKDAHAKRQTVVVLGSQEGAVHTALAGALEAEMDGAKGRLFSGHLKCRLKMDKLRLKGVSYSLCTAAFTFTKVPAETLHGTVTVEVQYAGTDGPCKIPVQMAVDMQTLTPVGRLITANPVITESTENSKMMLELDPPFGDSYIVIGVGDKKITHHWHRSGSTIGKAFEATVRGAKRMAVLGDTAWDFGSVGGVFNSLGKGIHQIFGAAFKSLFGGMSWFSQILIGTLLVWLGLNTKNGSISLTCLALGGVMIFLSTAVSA

[8] = molecular target: WNV EDIII, polyhistidine-AviTag (West Nile virus); assay: ELISA on EDIII (Table A)
[9] = molecular target: T4, DENV1 EDIII, polyhistidine-AviTag, made in HEK-293-6E cells (Dengue virus 1 (NC_001477)); assay: ELISA on EDIII (Table A)
T4 construct: also called EDIII of DENV1
T4 sequence (P17763 577-674, tags left off): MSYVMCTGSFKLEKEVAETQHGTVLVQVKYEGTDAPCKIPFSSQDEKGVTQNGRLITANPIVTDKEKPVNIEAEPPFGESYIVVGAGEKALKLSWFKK

Row | Binder | binding result [1] | binding result [2] | binding result [3] | further results
1 | Z004 (MEX18_89) (antibody, V domains shown, also called biotin-Z004 (biotinylated form)) VH: EVQLLESGGGLVQPGGSLRLTCATSGFTFRDYAMSWVRQAPGKGLEWVSSYSGIDDSTYYADSVKGRFTISRDNSKSTLSLHMNSLRAEDSALYFCAKDRGPRGVGELFDSWGQGTLVTVSS VL: DIQMTQSPSTLSASVGDRVTITCRASQSISKWLAWYQQKPGKAPKLLIYTTSTLKSGVPSRFSGSGSGTEFTLTISSLQPDDFATYYCQHFYSVPWTFGQGTKVEIK | no binding (tested: 10 µg/ml) | no binding (tested: 10 µg/ml) | no binding (tested: 10 µg/ml) | IC50, DENV1 luciferase RVPs [4]: 1.6 ng/mL; IC50, flow cytometry using authentic DENV1 [4]: 16.4 ng/mL; IC50, plaque reduction neutralization test (PRNT) [5]: 2.2 ng/mL
2 | Z028 (MEX84_p4-53) (antibody, V domains shown) VH: EVQLLESGGGLVQPGGSLRLSCAASGFTFSAYAMSWVRQAPGKGLEWVSSINGHSDSTYFADSVKGRFTISRDNSKNTLYLQMNSLRAEDTALYYCAKDRLREGIGELFHSWGQGTLVTVSS VL: DIQMTQSPSTLSASIGDRVTITCRASQSITPWLAWYQQKPGKAPKFLIYQTSILESGVPSRFSGSGSGTEFTLTISSLQPDDFATYYCQHYHSYPWTFGQGTKVEIK | no binding (tested: 10 µg/ml) | no binding (tested: 10 µg/ml) | no binding (tested: 10 µg/ml) | 
3 | Z001 (MEX18_21) (antibody, V domains shown) VH: EVQLLESGGGLVQPGGSRRLSCATSGFSFDTYAMSWLRQAPGKGLEWVSSFSGLDDSTYYADSVKGRFTISRDNSKNTLYLQMNSLRAEDTAIYYCAKDRGPRGIGELFDFWGQGTLVTVSS VL: DIQMTQSPSTLSASVGDRVTITCRASQSISRWLAWYQQKPGKAPKLLIYKTSTLKSEVPSRFSGSGSGTEFTLTISSLQPDDFATYYCQHFHSVPWTFGQGTKVEIK | no binding (tested: 10 µg/ml) | no binding (tested: 10 µg/ml) | no binding (tested: 10 µg/ml) | 
4 | Z032 (BRA112_24) (antibody, V domains shown) VH: EVQLLESGGRLVQPGGSLTLSCAASGFPFSTYAMSWLRQAPGKGLEWVSGITGDSGSTYYAASVKGRFTISRDNSKNTLYLQMNSLTADDTAVYYCAKDRLHSGLGELFSYWGQGTLVTVSS VL: DIQMTQSPSTLSASVGDRVNITCRASQSINQWLAWYQQKPGKAPKFLMYKASTLETGVPSRFSGSGSGTEFTLTISSLQPDDFATYYCQHYFSYPWTFGQGTKVEIK |  |  |  | EC50 [6]: 19.5 ng/mL
5 | Z035 (BRA112_71) (antibody, V domains shown) VH: EVQLLESGGGLIQPGGSLRLSCAASGFTFSSYAMSWVRQAPGKGLEWVSGISGSGGASDNGASRYYADSVKGRFSISRDNSKNTVYLQMNSLRAEDTAVYYCAKDRLSGGFGELFQKWGQGTLVTVSS VL: DIQMTQSPSTLAASVGDRVTITCRASQNINSWLAWYQQKPGKAPKFLIYKASTLESGAPSRFSGSGSGTEFTLTISSLQPDDFATYYCQHYYSYPYTFGQGTKVEIK | no binding (tested: 10 µg/ml) | no binding (tested: 10 µg/ml) | no binding (tested: 10 µg/ml) | 
6 | Z006 (MEX105_42) (antibody, V domains shown) VH: EVQLLESGGGLVQPGGSLRLSCAASGFTFKNYAMAWVRQAPGKGLEWVSLLYNSEESTYYADSVKGRFTISRDNSKNTLFLQMNRLRVEDTAVYFCVRDRSNGWSSINLWGRGTLVTVSS VL: DIQMTQSPSTLSASVGDRVTMTCRASQTISGWLAWYQQKPGKAPKLLIYQASRLESGIPSRFSGSGSGTEFTLTISSLQPDDVATYYCQQYSTFWTFGLGTKVEIK | no binding (tested: 10 µg/ml) | no binding (tested: 10 µg/ml) | no binding (tested: 10 µg/ml) | 
7 | Z010 (MEX105_88) (antibody, V domains shown) VH: EVQLLESGGGLVQPGGSLRLSCAASGFTFSNYAMAWVRQAPGKGLEWVSLIYSGDDSTYYADFVKGRFTISRHNSKNTLSLQMNSLRAEDTAIYYCVKDRGTGWSSIVHWGQGTLVTVSS VL: DIQMTQSPSTLSASVGDRVTITCRASQTISNWLAWYQQKPGKAPKLLIYQASSLESGVPSRFSGSGSGTEFTLTISSLQPDDFATYYCQQYSTYWTFGQGTKVEIK | no binding (tested: 10 µg/ml) | no binding (tested: 10 µg/ml) | no binding (tested: 10 µg/ml) | 
8 | Z031 (BRA112_46) (antibody, V domains shown) VH: EVQLLESGGGLVQPGGSLRLSCVASGFTFGSYGMAWVRQAPGKGLEWISSISSIDPSTYYADSVKGRFTVSRDNSENTLYLHMSSLKVEDTAVYFCAKDRLNGGFGELFASWGQGTLVTVSS VL: DIQMTQSPSTLSASVGDSVTITCRASQSISSWLAWYQQKPGKAPKFLIHKASSLESGIPSRFSGSGSGTEFTLTINNLQPDDFATYYCQHYHSYPWTFGQGTKVEIK | no binding (tested: 10 µg/ml) | no binding (tested: 10 µg/ml) | no binding (tested: 10 µg/ml) | 
9 | Z021 (MEX84_p4-23) (antibody, V domains shown) VH: QVQLQESGPGLVKPSETLSLTCTVSGGSIDTYYWSWIRQTPGKGLEWIGCFYYSVDNHFNPSLESRVTISVDTSKNQFSLKMTSMTASDTAVYYCARNQPGGRAFDYWGPGTLVTVSS VL: EIVLTQSPATLSLSPGQRATLSCRASQSVSNYFAWYQQKPGQAPRLLIYDTSKRATGTPARFSGSGSGTDFTLTISSLEPEDFAVYYCQERNNWPLTWTFGLGTKVEIK |  |  |  | IC50, ZIKV RVPs [7]: 0.7 ng/mL; IC50, DENV1 neutralization (flow cytometry) [4]: 10.1 ng/mL; IC50, plaque reduction neutralization assay (PRNT) [5]: 4 ng/mL
10 | Z040 (BRA12_81) (antibody, V domains shown) VH: EVQLLESGGGLVQPGGSLRLSCAASGFTFSTYAMSWVRQAPGKGLEWVSAISGSGRSTYYADSVKGRFTISRDNSKNTLYLQMNSLRGEDTAVYYCAKSSGGHNWNYVDYYYGMDVWGQGTTVTVSS VL: DIQLTQSPSFLSASVGDRVTITCRASQGISSYLAWYQQKPGKAPKLLIYAASTLQSGVPSRFSGSGSGTEFTLTISSLQPEDFATYYCQQLNSYPVTFGPGTKVDIK |  |  |  | binding result [8]: no binding; binding result [9]: no binding
11 | Z038 (BRA12_2) (antibody, V domains shown, also called BRA12_02) VH: EVQLLESGGGLVQPGGSLRLSCEASGFTFSNYAMNWVRQAPGKGLEWVSTLGATDNSGDSTYYVESAKGRFTISRDNSKNTLYLQMNSLRVEDTAVYFCAKDRTGNIGAGTGYFDKWGQGTLVTVSS VL: DIQMTQSPSTLSASVGDRVTITCRASHRISGWLAWYQQKPGKAPKLLIYQASGLESGVPSRFSGSGYGTEFTLTISSLQADDFATYYCQQYNNYPWTFGQGTKVEIK | no binding (tested: 10 µg/ml) | no binding (tested: 10 µg/ml) | no binding (tested: 10 µg/ml) | 
12 | Z044 (BRA138_46) (antibody, V domains shown) VH: QVQLVQSGAEVKKPGASVKVSCKASGYTFTSTYIHWVRQAPGQGLEWMGIINPSSSNTNYAQKFQGRVTMTRDTSTSTVYMELSSLRSEDTAVYYCARDFGGYSSSSVSDAFDIWGQGTMVTVSS VL: QSALTQPASVSGSPGQSITISCTGTSSDVGSFNLVSWYQQHPGKAPKLIIYEVSKRPSGVSNRFSGSKSGNTASLTISGLQAEDEVHYYCCSYAGSSRFVFGTGTKVTVL |  |  |  | binding result [8]: no binding; binding result [9]: no binding
13 | Z054 (BRA138_94) (antibody, V domains shown) VH: QLQLQESGPRLVKPSETLFLTCTVSGDSISSSSYFWGWIRQPPGKGLEWIGSISYSGSTYYNPSLKSRVTISVDTSKNQFSLKLSSVTAADTVVYYCAKHLYSSSWNIGSSFDSWGPGTLVTVSS VL: EIVLTQSPATLSLSPGERATLSCRASQSVSIYLAWYQQKPGQAPRLLIYDASSRATGIPARFSGSGSGTDFTLTISSLEPEDFAVYYCQQRSNWPVYTFGQGTKVEIK |  |  |  | binding result [8]: no binding; binding result [9]: no binding
